According to the supplement of paper PMC9112550, “Optimization of the antimicrobial peptide Bac7 by deep mutational scanning” (BMC Biology, 2022):

system: Escherichia coli TOP10; assay: shrunken log2 fold change of peptide-encoding DNA abundance (4.5 h post-induction vs induction); higher = less antimicrobial activity (less host growth inhibition); conditions: time post-induction: 4.5 h; library: site-saturation at positions 5, 18, 19, 20
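Note: peptides expressed intracellularly from a pBAD plasmid library in pooled LB shake-flask culture, induced with 0.3% L-arabinose, DNA abundance read by NGS, three biological replicates, DESeq2 with apeglm shrinkage.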

Sequence	shrunken log2 fold change
RRIRFRPPRLPRPRPRPCFAPRP	0.153
RRIRERPPRLPRPRPRPYMPPRP	-0.429
RRIRDRPPRLPRPRPRPAAMPRP	1.32
RRIRPRPPRLPRPRPRPIIQPRP	-0.402
RRIRERPPRLPRPRPRPTQQPRP	0.0931
RRIRWRPPRLPRPRPRPWGIPRP	0.0114
RRIRRRPPRLPRPRPRPLIMPRP	-0.325
RRIRVRPPRLPRPRPRPVFEPRP	-0.0665
RRIRDRPPRLPRPRPRPRQFPRP	0.0037
RRIRDRPPRLPRPRPRPREQPRP	1.36
RRIRPRPPRLPRPRPRPVKNPRP	0.00624
RRIRQRPPRLPRPRPRPSEKPRP	-0.018
RRIRPRPPRLPRPRPRPIRQPRP	-0.0697
RRIRIRPPRLPRPRPRPCIVPRP	-0.562
RRIRFRPPRLPRPRPRPSWRPRP	0.167
RRIRHRPPRLPRPRPRPTWWPRP	0.368
RRIRDRPPRLPRPRPRPYNNPRP	-0.489
RRIRDRPPRLPRPRPRPKKQPRP	0.187
RRIRLRPPRLPRPRPRPCLNPRP	-0.0428
RRIRIRPPRLPRPRPRPPDLPRP	-0.00973
RRIRQRPPRLPRPRPRPPWMPRP	0.172
RRIRFRPPRLPRPRPRPRTSPRP	0.223
RRIRPRPPRLPRPRPRPNSIPRP	-0.254
RRIRCRPPRLPRPRPRPRSFPRP	-0.342
RRIRQRPPRLPRPRPRPKMKPRP	-0.08

Sequence	shrunken log2 fold change
RRIRVRPPRLPRPRPRPNSKPRP	-0.506
RRIRNRPPRLPRPRPRPMRAPRP	0.517
RRIRRRPPRLPRPRPRPIPFPRP	-0.175
RRIRFRPPRLPRPRPRPVKRPRP	0.0219
RRIRSRPPRLPRPRPRPICDPRP	0.228
RRIRCRPPRLPRPRPRPSEFPRP	-0.287
RRIRYRPPRLPRPRPRPEIRPRP	-0.0132
RRIRWRPPRLPRPRPRPEEEPRP	0.00738
RRIRPRPPRLPRPRPRPRVRPRP	0.217
RRIRSRPPRLPRPRPRPQCDPRP	-0.193
RRIRWRPPRLPRPRPRPPVPPRP	0.469
RRIRGRPPRLPRPRPRPLYGPRP	-0.105
RRIRGRPPRLPRPRPRPCDPPRP	0.228
RRIRHRPPRLPRPRPRPQHPPRP	-0.396
RRIRKRPPRLPRPRPRPCLTPRP	-0.0179
RRIRIRPPRLPRPRPRPIYFPRP	-0.233
RRIRLRPPRLPRPRPRPCHLPRP	0.0143
RRIRPRPPRLPRPRPRPRSYPRP	0.199
RRIRVRPPRLPRPRPRPKQPPRP	0.11
RRIRVRPPRLPRPRPRPWNIPRP	-0.582
RRIRIRPPRLPRPRPRPTLFPRP	-0.131
RRIRLRPPRLPRPRPRPIHNPRP	-1.05
RRIRTRPPRLPRPRPRPLHNPRP	-0.557
RRIRMRPPRLPRPRPRPTVMPRP	0.563
RRIRYRPPRLPRPRPRPSKVPRP	-1.04

Sequence	shrunken log2 fold change
RRIRKRPPRLPRPRPRPNTEPRP	0.0416
RRIRTRPPRLPRPRPRPTFGPRP	0.0406
RRIRFRPPRLPRPRPRPSINPRP	-0.625
RRIRLRPPRLPRPRPRPDAGPRP	0.0316
RRIRMRPPRLPRPRPRPYNCPRP	-0.0909
RRIRHRPPRLPRPRPRPDRIPRP	-0.495
RRIRARPPRLPRPRPRPELVPRP	1.3
RRIRHRPPRLPRPRPRPGSLPRP	0.134
RRIRFRPPRLPRPRPRPRLAPRP	0.69
RRIRFRPPRLPRPRPRPTTSPRP	0.0366
RRIRLRPPRLPRPRPRPTLNPRP	-0.0428
RRIRPRPPRLPRPRPRPFCEPRP	0.0972
RRIRDRPPRLPRPRPRPTYEPRP	0.127
RRIRWRPPRLPRPRPRPGPMPRP	0.327
RRIRTRPPRLPRPRPRPNQHPRP	-0.354
RRIRTRPPRLPRPRPRPVQGPRP	0.165
RRIRNRPPRLPRPRPRPCTAPRP	0.022
RRIRGRPPRLPRPRPRPKNKPRP	0.375
RRIRGRPPRLPRPRPRPGHRPRP	0.263
RRIRARPPRLPRPRPRPNSYPRP	-0.00611
RRIRGRPPRLPRPRPRPRDVPRP	0.654
RRIRCRPPRLPRPRPRPPVRPRP	0.519
RRIRDRPPRLPRPRPRPQKIPRP	0.0171
RRIRTRPPRLPRPRPRPDQDPRP	-0.0328
RRIRKRPPRLPRPRPRPTVMPRP	0.247
